Source: publication PMC5678579, “Clusterin protects neurons against intracellular proteotoxicity” (Acta Neuropathologica Communications, 2017)

Target: full length human TDP-43-turboGFP, in vitro translated (human, UniProt Q13148 1-414)
Assay: cell-based or functional assay

full length human TDP-43-turboGFP, in vitro translated, sequence (Q13148 whole entry): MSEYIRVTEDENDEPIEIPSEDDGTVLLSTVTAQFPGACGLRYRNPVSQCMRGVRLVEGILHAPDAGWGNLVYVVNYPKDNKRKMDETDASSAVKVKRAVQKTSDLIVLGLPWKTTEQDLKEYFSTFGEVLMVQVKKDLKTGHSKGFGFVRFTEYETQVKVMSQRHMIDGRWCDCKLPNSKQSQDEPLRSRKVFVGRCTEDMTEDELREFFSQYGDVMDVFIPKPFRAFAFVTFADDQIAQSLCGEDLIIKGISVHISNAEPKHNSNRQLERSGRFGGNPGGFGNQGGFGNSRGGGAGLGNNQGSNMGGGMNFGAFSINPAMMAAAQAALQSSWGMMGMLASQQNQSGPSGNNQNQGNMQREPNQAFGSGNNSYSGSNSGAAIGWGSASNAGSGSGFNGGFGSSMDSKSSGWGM

soluble TDP-43-tGFP left after 4 h at 37 °C with 43 nM CLU, against 43 nM BSA (Western blot of the supernatant, densitometry): 8 fold
B1: clusterin (CLU) purified from human plasma (natural protein)
chain 1: DQTVSDNELQEMSNQGSKYVNKEIQNAVNGVKQIKTLIEKTNEERKTLLSNLEEAKKKKEDALNETRESETKLKELPGVCNETMMALWEECKPCLKQTCMKFYARVCRSGSGLVGRQLEEFLNQSSPFYFWMNGDRIDSLLENDRQQTHMLDVMQDHFSRASSIIDELFQDRFFTREPQDTYHYLPFSLPHRRPHFFFPKSRIVR
chain 2: SLMPFSPYEPLNFHAMFQPFLEMIHEAQQAMDIHFHSPAFQHPPTEFIREGDDDRTVCREIRHNSTGCLRMKDQCDKCREILSVDCSTNNPSQAKLRRELDESLQVAERLTRKYNELLKSYQWKMLNTSSLLEQLNEQFNWVSRLANLTQGEDQYYLRVTTVASHTSDSDVPSGVTEVVVKLFDSDPITVTVPVEVSRKNPKFMETVAEKALQEYRKKHREE
